Data: US12281340B2, “Method of producing N-acyl-amino group-containing compound” (AJINOMOTO CO., INC., priority 2018, dated 2025)

Tests used:
Format in all cases: biochemical
[1] = Quantification of produced N-acylamino acid (UV 210 nm) using purified acylamino acid synthetase; details: 5 mM L-Asp, 5 mM sodium fatty acid, 200 μg/mL enzyme, 25° C., 24 hours
Protocol: 0.1 mL of a reaction solution containing 50 mM Tris-HCl, 5 mM amino acid, 5 mM sodium fatty acid, 10 mM ATP, 10 mM MgCl2, 1 mM DTT, 200 μg/mL of the purified enzyme, pH 8.0 was incubated at 25° C. for 24 hours. As amino acids, L-Asp was used in AtGH3-6, OsGH3-8, AtGH3-5, AtGH3-12, and Gly or L-Ala was used in CfHP. After completion of the reaction, 0.4 mL of the reaction stop solution (1% (v/v) phosphoric acid, 75% (v/v) methanol) was added, and the mixture was filtrated through the filter followed by being subjected to the UPLC-MS analysis to quantify the produced N-acylamino acid by detection at UV 210 nm. The condition for the UPLC-MS analysis is as descried in Example 2. As a result of the analysis, 3.9 mM of Nα-capryloyl-L-aspartic acid, 4.5 mM of Nα-caprinoyl-L-aspartic acid and 2.2 mM of Nα-lauroyl-L-aspartic acid were detected when AtGH3-6 was used; 4.3 mM of Nα-capryloyl-L-aspartic acid, 4.6 mM of Nα-caprinoyl-L-aspartic acid and 3.5 mM of Nα-lauroyl-L-aspartic acid were detected when OsGH3-8 was used; 4.1 mM of Nα-capryloyl-L-aspartic acid, 4.6 mM of Nα-caprinoyl-L-aspartic acid and 2.5 mM of Nα-lauroyl-L-aspartic acid were detected when AtGH3-5 was used; 1.6 mM of Nα-capryloyl-L-aspartic acid, 0.6 mM of Nα-caprinoyl-L-aspartic acid and 0.2 mM of Nα-lauroyl-L-aspartic acid were detected when AtGH3-12 was used; 4.5 mM of Nα-capryloylglycine, 4.6 mM of Nα-caprinoylglycine, 0.1 mM of Nα-lauroylglycine, 3.1 mM of Nα-capryloyl-L-alanine, 3.6 mM of Nα-caprinoyl-L-alanine and 0.4 mM of Nα-lauroyl-L-alanine were detected when CfHP was used.

[2] = Synthesis of N-caprinoylamino acid using purified acylamino acid synthetase, UPLC-MS detection; parameters: key: +: Detected; −: Not detected; details: +ATP
How it was run: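 Purified enzyme (50 μg) with 5 mM amino acid, 5 mM sodium caprate, 10 mM ATP, 10 mM MgCl2, 1 mM DTT in Tris-HCl pH 8.0, 24 h at 25° C; product detected by UPLC-MS (ESI-negative) as the N-caprinoyl amino acid mass signal.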

[3] = Synthesis of N-lauroylamino acid / N-lauroylamino acid derivative using purified acylamino acid synthetase, UPLC-MS detection; parameters: key: +: Detected; −: Not detected; details: +ATP
[4] = as above; parameters: key: +: Detected; −: Not detected; details: +ATP; remark: listed apart in the source
Protocol: 0.2 mL of a reaction solution containing 50 mM Tris-HCl, 5 mM amino acid or D-amino acid derivative, 5 mM sodium laurate, 10 mM ATP, 10 mM MgCl2, 1 mM DTT, 200 μg/mL of the purified enzyme, pH 8.0 was incubated at 25° C. for 24 hours. After completion of the reaction, 0.8 mL of the reaction stop solution (1% (v/v) phosphoric acid, 75% (v/v) methanol) was added, and the mixture was filtrated through the filter followed by being subjected to the UPLC-MS analysis to detect a signal of a molecular weight corresponding to an N-lauroyl-amino acid or an N-lauroyl-amino acid derivative. The condition for the UPLC-MS analysis is as described in Example 2.
As a result of the UPLC-MS analysis, the signal of the molecular weight corresponding to the N-lauroyl-amino acid or the N-lauroyl-amino acid derivative was confirmed in the reaction solution containing the enzyme in combination with the amino acid or the amino acid derivative shown in Table 5 below.

Nα-caprinoyl-L-aspartic acid detected [1]: 0.6 mM
Nα-capryloyl-L-aspartic acid detected [1]: 1.6 mM
Nα-lauroyl-L-aspartic acid detected [1]: 0.2 mM
signal of molecular weight corresponding to N-caprinoyl amino acid ([2]; substrates GABA and sodium caprate): +
signal of molecular weight corresponding to N-caprinoyl amino acid ([2]; substrates Gly and sodium caprate): +
signal of molecular weight corresponding to N-caprinoyl amino acid ([2]; substrates L-Ala and sodium caprate): +
signal of molecular weight corresponding to N-caprinoyl amino acid ([2]; substrates L-Arg and sodium caprate): +
signal of molecular weight corresponding to N-caprinoyl amino acid ([2]; substrates L-Asn and sodium caprate): +
signal of molecular weight corresponding to N-caprinoyl amino acid ([2]; substrates L-Asp and sodium caprate): +
signal of molecular weight corresponding to N-caprinoyl amino acid ([2]; substrates L-Cys and sodium caprate): +
signal of molecular weight corresponding to N-caprinoyl amino acid ([2]; substrates L-Gln and sodium caprate): +
signal of molecular weight corresponding to N-caprinoyl amino acid ([2]; substrates L-Glu and sodium caprate): +
signal of molecular weight corresponding to N-caprinoyl amino acid ([2]; substrates L-His and sodium caprate): +
signal of molecular weight corresponding to N-caprinoyl amino acid ([2]; substrates L-Ile and sodium caprate): +
signal of molecular weight corresponding to N-caprinoyl amino acid ([2]; substrates L-Leu and sodium caprate): +
signal of molecular weight corresponding to N-caprinoyl amino acid ([2]; substrates L-Lys and sodium caprate): +
signal of molecular weight corresponding to N-caprinoyl amino acid ([2]; substrates L-Met and sodium caprate): +
signal of molecular weight corresponding to N-caprinoyl amino acid ([2]; substrates L-Phe and sodium caprate): +
signal of molecular weight corresponding to N-caprinoyl amino acid ([2]; substrates L-Pro and sodium caprate): +
signal of molecular weight corresponding to N-caprinoyl amino acid ([2]; substrates L-Ser and sodium caprate): +
signal of molecular weight corresponding to N-caprinoyl amino acid ([2]; substrates L-Thr and sodium caprate): +
signal of molecular weight corresponding to N-caprinoyl amino acid ([2]; substrates L-Trp and sodium caprate): +
signal of molecular weight corresponding to N-caprinoyl amino acid ([2]; substrates L-Tyr and sodium caprate): +
signal of molecular weight corresponding to N-caprinoyl amino acid ([2]; substrates L-Val and sodium caprate): +
signal of molecular weight corresponding to N-caprinoyl amino acid ([2]; substrates β-Ala and sodium caprate): +
signal of molecular weight corresponding to N-lauroyl amino acid derivative ([3]; substrates Sarcosine and sodium laurate): −
signal of molecular weight corresponding to N-lauroyl amino acid derivative ([3]; substrates Taurine and sodium laurate): +
signal of molecular weight corresponding to N-lauroyl amino acid ([4]; substrates Gly and sodium laurate): −
signal of molecular weight corresponding to N-lauroyl amino acid ([4]; substrates L-Ala and sodium laurate): −
signal of molecular weight corresponding to N-lauroyl amino acid ([4]; substrates L-Arg and sodium laurate): −
signal of molecular weight corresponding to N-lauroyl amino acid ([4]; substrates L-Asp and sodium laurate): +
signal of molecular weight corresponding to N-lauroyl amino acid ([4]; substrates L-Glu and sodium laurate): −
signal of molecular weight corresponding to N-lauroyl amino acid ([4]; substrates L-Lys and sodium laurate): +
signal of molecular weight corresponding to N-lauroyl amino acid ([4]; substrates L-Thr and sodium laurate): +
signal of molecular weight corresponding to N-lauroyl amino acid ([4]; substrates β-Ala and sodium laurate): −
B1: AtGH3-12: 4-substituted benzoates-glutamate ligase GH3.12 from Arabidopsis thaliana, His-tagged (protein, listed as Arabidopsis thaliana)
chain: MKPIFDINETFEKQLKDLTSNVKSIQDNLLEEIITPNTKTEYLQRFLIDRFDKELFKKNVPIVSYEDIKPYLDRVVNGESSDVISARTITGFLLSSGTSGGAQKMMPWNNKYLDNLTFIYDLRMQVITKHVKGVEEGKGMMFLFTKQESMTPSGLPARVATSSYFKSDYFKNRPSNWYYSYTSPDEVILCPNNTESLYCHLLCGLVQRDEVVRTGSIFASVMVRAIEVLKNSWEELCSNIRSGHLSNWVTDLGCQNSVSLVLGGPRPELADTIEEICNQNSWKGIVKRLWPNTKYIETVVTGSMGQYVPMLNYYCNDLPLVSTTYGSSETTFGINLDPLCKPEDVSYTFMPNMSYFEFIPMDGGDKNDVVDLEDVKLGCTYEPVVTNFAGLYRMRVGDIVLVTGFYNNAPQFKFVRRENVVLSIDSDKTNEEDLFKAVSQAKLVLESSGLDLKDFTSYADTSTFPGHYVVYLEVDTKEGEEKETAQFELDEEALSTCCLVMEESLDNVYKRCRFKDGSIGPLEIRVVRQGTFDSLMDFFISQGASTGQYKTPRCIKSGKALQVLETCVVAKFFSI
modifications: His-tag
notes: 4-substituted benzoates-glutamate ligase GH3.12 from Arabidopsis thaliana, His-tagged
